Results published in article PMC2719619, “Efficient, chemoselective synthesis of immunomicelles using single-domain antibodies with a C-terminal thioester” (BMC Biotechnology, 2009).

Columns and labels:
[1] = target: T1, Glutathione-S-transferase from Schistosoma japonicum (Schistosoma japonicum, UniProt P08515 = GST); assay: ELISA; settings: both partners purified
T1 construct: GST of Schistosoma japonicum (printed as 'glutathione-S from Schistosoma japonicum'); recombinant from the vector pGEX-4T-2 in the selection; GST from pGEX-4T-2 would carry some residues of the vector's linker at its C-terminus; also called GST
T1 sequence (P08515 whole entry, looked up): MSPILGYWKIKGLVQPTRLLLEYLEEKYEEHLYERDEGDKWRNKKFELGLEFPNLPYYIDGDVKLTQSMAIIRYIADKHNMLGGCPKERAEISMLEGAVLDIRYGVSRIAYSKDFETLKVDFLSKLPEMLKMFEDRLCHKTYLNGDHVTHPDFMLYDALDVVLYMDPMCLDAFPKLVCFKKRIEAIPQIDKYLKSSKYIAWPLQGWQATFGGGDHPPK

[2] = target: T1, Glutathione-S-transferase from …; assay: SPR; GST immobilised on a CM5 chip by EDC/NHS (160 RU), 0-500 nM sdAb injected, 25°C, PBS with 0.05% Tween-20, 30 μL/min; steady state responses fitted to a one-site binding model; apparent; settings: both partners purified

B1: sdAb-aGST-MESNA (llama single-domain antibody against GST with a C-terminal MESNA thioester) (VHH)
VHH: QVQLQDSGGGIVQPGGSLRLSCAGSGFSLDHYAIGWFRQAPGKRRELVASITSGGTIRYADSVKDRFTISRDNAKNRVYLQMNSLKPEDTAVYYCSARAKFSTSYDYWGQGTQVTVSS
notes: llama single-domain antibody from a naive phage display library, clone C11 of vector pHENIX sdAb-α GST C11; A mix of species that differ in how much of the pelB leader is left (LC-MS: calcd. 19632, 19501, 18175, 18062 Da); One conserved disulfide bond; also called sdAb-α GST-MESNA; sdAb-GST; source: E. coli BL21 (DE3), pTXB1, periplasm; purified on a chitin column, cleaved from the intein with …
[1]
  Kd: 77 nM
[2]
  Kd: 116 nM
